PMC11871015, “Unraveling the molecular basis of substrate specificity and halogen activation in vanadium-dependent haloperoxidases” (Nature Communications, 2025)
One block for each molecule: values may come before it.

Columns and labels:
[1] = biological target: AmVHPO R425D mutant (vanadium-dependent haloperoxidase from Acaryochloris marina, R425D) (Acaryochloris marina MBIC 11017); assay: crystal structure; hanging drop vapor diffusion at 20 °C, protein 15 mg/mL, reservoir 0.1 M Tris pH 8.5, 2 M NH4H2PO4, 0.5 mM K3VO4; R425S solved without and with 1 mM 1,3,5-trimethoxybenzene (TMB)
[2] = biological target: AmVHPO R425S mutant (vanadium-dependent haloperoxidase from Acaryochloris marina, R425S) (Acaryochloris marina MBIC 11017); assay: as above
[3] = biological target: T1, AmVHPO (vanadium-dependent haloperoxidase from Acaryochloris marina) (Acaryochloris marina, UniProt B0C4R0, R425S); assay: X-ray co-crystal structure; format: binding; conditions: 1 mM TMB; phosphate in place of vanadate; site at interface of two adjacent subunits (Glu139, Gln399, Phe401); pH 8.5; 20 °C
T1 construct: gene AM1_4975; codon-optimized synthetic gene in pET28-based vector, His-tag, E. coli BL21 (DE3); dodecamer (hexamer of dimers); active site/substrate tunnel formed by two adjacent subunits
T1 sequence (B0C4R0 entry or part of it R425S): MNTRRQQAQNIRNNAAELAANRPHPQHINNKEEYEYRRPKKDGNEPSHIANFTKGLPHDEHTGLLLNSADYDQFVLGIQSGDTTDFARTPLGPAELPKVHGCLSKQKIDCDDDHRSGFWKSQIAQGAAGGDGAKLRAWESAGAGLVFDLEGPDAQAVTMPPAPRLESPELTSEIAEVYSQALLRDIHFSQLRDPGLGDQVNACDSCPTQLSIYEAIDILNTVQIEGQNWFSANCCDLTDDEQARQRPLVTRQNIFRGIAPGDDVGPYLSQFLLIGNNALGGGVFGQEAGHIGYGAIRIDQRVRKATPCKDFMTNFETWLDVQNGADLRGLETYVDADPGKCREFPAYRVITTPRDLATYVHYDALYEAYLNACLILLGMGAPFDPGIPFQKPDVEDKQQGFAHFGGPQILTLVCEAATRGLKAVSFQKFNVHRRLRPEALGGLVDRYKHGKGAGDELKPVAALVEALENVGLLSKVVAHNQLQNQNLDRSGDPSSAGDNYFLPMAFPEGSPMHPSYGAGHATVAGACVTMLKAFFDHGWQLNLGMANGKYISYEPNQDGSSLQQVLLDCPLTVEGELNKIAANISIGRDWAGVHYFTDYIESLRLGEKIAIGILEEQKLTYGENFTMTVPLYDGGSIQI

- stoichiometry N [1]: 12
Molecule: AmVHPO R425D mutant (vanadium-dependent haloperoxidase from Acaryochloris marina, R425D) (enzyme)

- stoichiometry N [2]: 12
Molecule: AmVHPO R425S mutant (vanadium-dependent haloperoxidase from Acaryochloris marina, R425S) (enzyme)

- X-ray co-crystal structure [3]: 8Q22 (AmVHPO R425S mutant with TMB)
Molecule: COc1cc(OC)cc(OC)c1 [compound 7, 1,3,5-trimethoxybenzene]
